Results taken from a protein production outcome set (Wang et al. 2014).

Assay: label from the status in PepcDB records

Row | Sequence | protein production
1 | MTNVLYQHGTLGTLMAGLLEGTATINELLEHGNLGIATLTGSDGEVIFLDGKAYHANEHKEFIELKGDEKVPYASITNFKASKTFPLQQLSQDDVFAQIKNEMLSENLFSAVKIYGTFKHMHVRMMPAQQPPYTRLIDSARRQPEEKRQDIRGAIVGFFTPELFHGVGSAGFHIHFADDERAYGGHVLDFEVDDVVVEIQNFETFQQHFPVNNETFVKAKIDYKDVAEEIREAE | not failed
2 | MTNWLIAYQGEPGAYSEIAALRFGEPLPCESFDDVFSAVTEQKADYAVIPIENSLGGSIHQNYDLLLRRPVVILAETFVKVEHCLLGLPGASVETATKAMSHPQALVQCHNFFATHPQIRAEAAYDTAGSAKMVAESRDKSALAIASKRAGELYGLDILKENLADEEWNITRFFCIAHENN | not failed
3 | MTPHKQLILGGEQAFVGNVASGDFKNRPCPSDLGDIPGTVNPPEGRNPSQDFGQRWDWIQLNAEHMKFSSVSEEKPGLLAPPAQPLTKMFQGAWLCWASLLLLVRVTQPCPVGCDCFDRKIFCSDEQLAAIPLDIPSHVTDIVFVETSFTTVGTRAFSGSPNLTKVVFLNTRVHHLEPDAFGGLPRLEDLEVTGSPFSNLSANIFSNLSSLGKLTLDFNRLAALPEDLFHHMDTLESLQLQGNQLQTLPGRLFQSLRYLRTLNLAQNLLTQLPKGMFQSLSSLQILKLSDNMFARLPEGVLSNLGSLQELFLDSNAITELSPHLFSHLLSLEKLWLQHNAISLLPVSAFSSLRNLTFLNLKDNALRTLPAGLFTHNPGLLHLSLSYNQLETVPEGSFANLRKLASLTLSHNAITHLPENVFRNLEQLVKLSLDSNNLTVLHPTLFHNLSKLQLLDLSRNQLTMLPGGIFDTNYDLFNLALLGNPWQCDCRLSYLTSWLRLYNDRIFNTHTFCAGPAYLKGQLVPNLKQEQLVCPGNPGQLGLDDREPAGSWDLAVEGRAAHRQCIYGNPEGTVLLACEEAQCRWLNIQLSSREGSDVTAMAYNSSQEWELRSTCGSVRVTVSIEAQAAGP | failed
4 | MTPMKTYDLIVIGTGPGGYHAAIRAAQLGLKVLAVEAGEVGGVCLNVGCIPTKALLHAAETLHHLKVAEGFGLKAKPELDLKKLGGWRDQVVKKLTGGVGTLLKGNGVELLRGFARLVGPKEVEVGGERYGAKSLILATGSEPLELKGFPFGEDVWDSTRALKVEEGLPKRLLVIGGGAVGLELGQVYRRLGAEVTLIEYMPEILPQGDPETAALLRRALEKEGIRVRTKTKAVGYEKKKDGLHVRLEPAEGGEGEEVVVDKVLVAVGRKPRTEGLGLEKAGVKVDERGFIRVNARMETSVPGVYAIGDAARPPLLAHKAMREGLIAAENAAGKDSAFDYQVPSVVYTSPEWAGVGLTEEEAKRAGYKVKVGKFPLAASGRALTLGGAEGMVKVVGDEETDLLLGVFIVGPQAGELIAEAALALEMGATLTDLALTVHPHPTLSESLMEAAEAFHKQAIHILNR | not failed
5 | MTPNKEDYLKCIYEIGIDLHKITNKEIAARMQVSPPAVTEMIKRMKSENLILKDKECGYLLTDLGLKLVSELYRKHRLIEVFLVHHLDYTSDQIHEEAEVLEHTVSDLFVERLDKLLGFPKTCPHGGTIPAKGELLVEINNLPLADIKEAGAYRLTRVHDSFDILHYLDKHSLHIGDQLQVKQFDGFSNTFTILSNDEDLQVNMDIAKQLYVEKIN | not failed
6 | MTPNYLDIAFLAVLGLFTLRGLFRGLVEEVAGLVGVIGGFWLANRHHADAAAYVGRVVEDPAWVGVLSYVVVFLGVLLVVSIVARIIRKLLVLSFAGWLDHLAGGAVGVAKGVIICSILLAVLMHFLPDASFVRDSRVIPHLAKVTSFIKGYLPQQIVN | failed
7 | MTPPEIDFFPDFIADPHRLFNHLKDSVLWDERMRARKTASFGAPYDYSQITYPAVPMPEALEQLCGPIEQLLGFRPNNCLLNCYPDGHSSMGFHSDANEQLVTGTGVVIVSLGHARAMVFRHKESGATFDYSLASGSLLHMSDELQKHWLHAIPKAPDAGERISLSFRQLKTGLEHHHHHH | not failed
8 | MTPPERVRRKCPQTNTREPIIQEPDTFEPEATRRDAGATESSRANRGWWDRNADDYQVEHGTFLGDDRFVWCPEGLDEVEAELLGPAEDLKGKDVLEIGAGAAQCSRWLAGQGARPVALDLSHRQLQHALRIGGDVPLVEADAGALPFADASFDLACSAYGALPFVADPVRVLREVHRVLRPGGRFVFSVTHPIRWAFPDEPGPEGLSVSASYFDRTPYVEQDEEGGAVYVEHHRTIGDRVRDVVAGGFRLLDVVEPEWPAWNTQEWGGWSPLRGNLIPGTAIFVCVRD | failed
9 | MTPSPHDLLHCGMNSQDRDETNGDRQRLVRVALGQEDGDLLVRGAQVVQPVTREVYAADVLVAGGRVAAVGPDLPARARRTVQARGAYLAPGFIDGHIHIESSLLTPASFAAAVLPHGTTAVVAEPHEIVNVLGPAGLNWMLGAGRTSGLRVYASAPSCVPASEFEQGGARVDAAQVAEMLARPGVLGLAEMMNYPGVLGGDAGVWDILNAGRRSGKRLDGHAAGLGGRELLAYAAAGLHSDHEATTPEEARERLRAGLWLMVREGSAARNLAALLPVLRDLPRRALLVSDDVSVDELLELGHLDRLLRTCVAGGLHPADAVALVTSQPAEYWGLHDLGVIAPGYHADFVLLRDLQHFGVLETFVGGEEARPGGETPPLPGGGVDLGPGWDGATFDPPAHWPTLQMFPDQIVTGRAAPGSGDARLVVADRYGRGEWSSCWTLGSGLRGGTLGISILHDAHQVALLGGSDADLRAAGRALERLGGGIVLVVDGEVREQLPLPYAGLMTDHAPAEAAAALGRVTAAARLLGCMPAGRL | failed
10 | MTPTQNVPEDRIQIGQLRSAYGLNGWLWVYSNTEPMSNMFDYLPWFIETKAGWQTVDVKRWKPHGKGLVVSLKNVSDRNAAESLIGSTIWVAKSQLPKTDVDEYYWSDLKGLTVLGLDEEEQEVNLGQIHELFETGANDVMVVRATADSVDAEERMIPWHKDVVQRVDLEAGRIYVNWGVDYLEHHHHHH | not failed
11 | MTPYQGEPLSLNFQDVEVRAVLQVLADYAGVNLVASDAVQGSVTLRLQDVPWDQALDLVLRSKGLSRRQEGNVLLVAPAAEFAAQSADARVSQALDAHLQPLRRELLPIHHAKAADLAQLLLAGLEGDGIPPASLSVDERTNTLVVHLPADRLAEMRQLVAQLDVPVRQVAIEARIVEANVDYEKSLGVRWGGPLYGEKLRPGKELFVDLGLERAGSSIGLGLLRGDVLLDLELSAMEKSGNGEIISQPKVVTADKETARILKGTEVPYQETSQSGATSVSFREASLSLEVTPQITPDNKVIMTVRVTKDEPDYVNALNNVPPIRKNEVNAKVRVADGETIVIGGVYSTSQNNVVDKVPFFGDLPYVGRLFRRDALQEKKSELLVFLTPRIMSDQAIAVSRLEHHHHHH | failed
12 | MTPYTEVELTLIQYVLVVVSGFIIGLILGLIGGGGSILAVPLLLYFVGLGNDSSSFGNYSNITHLVLGTSALAVGLNAYINSFIHWRKGNVKVFEGVVFTIPGVIGSILGAYFGYLTTGNLILIMFGIVMILIGLRMIKSKCKEGSNETKGSGDTGVVKSKDRINIRIIYTGFLVGLASGFLGIGGGFLIVPALLFSTSMSIISAIGTSLISVGTFGLSTALTYASYGEIDYILSLILLAGGVGGGYIGTLLASKSPRSTLRKVFGVVLIVVAIYIIYRNLLL | failed
13 | MTQAATILRTGRKFDQVLRGAREVFMSDGFEGANVDDIARAAGVSKATLYSYFPDKRLLFVEVAQTECQLMAERILSMIDEDRPVREVLTITATQLVAFLISDFAQQVFRICLAERERFPELARAFYAAGPENGQRQICEYLEKAVTKGELVIADIPMAAEQFSELCKTRLWTRAVFGIQTRFTQAEIDEVALAAVDTFLARYGA | failed
14 | MTQDNASGDQVSKQHKAFLRKLYLAHLMDDARHNLLSLGKLTGMPRRTLQDAIASFADIGIEVEFVQDGERHNAGYYRIRTWGPISSAWMDTHVDEVKSLLGVDDAVGQATAGNGA | not failed
15 | MTQETALGAALKSAVQTMSKKKQTEMIADHIYGKYDVFKRFKPLALGIDQDLIAALPQYDAALIARVLANHCRRPRYLKALARGGKRFDLNNRFKGEVTPEEQAIAQNHPFVQQALQQQSAQAAAETLSVEAEAAESSAAE | not failed
16 | MTQHLTIAQTYLAAWNEEDNERRRHLVGQAWAENTRYVDPLMQGEGQQGIAAMIEAARQKFPGYRFVLAGTPDGHGNFTRFSWRLISPDGDDVAGGTDVVSLNTEGRIDNVVGFLDGAVS | not failed
